In the supplement of paper PMC7125110:
± gives the standard error. Fewer inactive variants are shown than the library holds.

B1: glmS ribozyme (parent)
chain: AUAAAAGCGCCAGAACUACAGAAAUGUAGUUGACGAGGAGGAGGUUUAUCGAAUUUUCGGCGGAUGCCUCCAAA

How the values were obtained:
Settings in all cases: with glucosamine-6-phosphate
glucosamine-6-phosphate [1] = variants of: B1; assay: self-cleavage kobs at 40 uM GlcN6P; higher = faster cleavage; RNA array
In short: (§1)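 In situ transcription by E. coli RNA polymerase produced barcoded ribozyme variants on sequenced MiSeq chips, and a hybridised Cy3 probe tracked them at 37 °C. Glucosamine-6-phosphate was flowed in at 40 μM to 10 mM in HEPES/KCl/Mg(OAc)2 buffer. kcat and KM were taken from weighted Michaelis–Menten fits of kobs values from exponential decay fits.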

glucosamine-6-phosphate [2] = variants of: B1; assay: self-cleavage kobs at 160 uM GlcN6P; higher = faster cleavage; RNA array
In short: as §1

glucosamine-6-phosphate [3] = variants of: B1; assay: self-cleavage kobs at 640 uM GlcN6P; higher = faster cleavage; RNA array
In short: as §1

glucosamine-6-phosphate [4] = variants of: B1; assay: self-cleavage kobs at 2500 uM GlcN6P; higher = faster cleavage; RNA array
In short: as §1

glucosamine-6-phosphate [5] = variants of: B1; assay: self-cleavage kobs at 10000 uM GlcN6P; higher = faster cleavage; RNA array
In short: as §1

Row | Variant | self-cleavage kobs at 40 uM GlcN6P (glucosamine-6-phosphate [1]) | self-cleavage kobs at 160 uM GlcN6P (glucosamine-6-phosphate [2]) | self-cleavage kobs at 640 uM GlcN6P (glucosamine-6-phosphate [3]) | self-cleavage kobs at 2500 uM GlcN6P (glucosamine-6-phosphate [4]) | self-cleavage kobs at 10000 uM GlcN6P (glucosamine-6-phosphate [5])
1 | U54G C68U | 0.000327 ± 2.5e-05 s⁻¹ | 0.000869 ± 0.00021 s⁻¹ | 0.000824 ± 0.00012 s⁻¹ | 0.0036 ± 0.00084 s⁻¹ | 0.00395 ± 0.00053 s⁻¹
2 | G40U C61A G66A C70U | < 1e-05 s⁻¹ |  |  |  | < 1e-05 s⁻¹
3 | C34G A39U C70U | < 1e-05 s⁻¹ |  |  |  | 
4 | C34A C58U C71U | < 1e-05 s⁻¹ |  |  |  | < 1e-05 s⁻¹
5 | G9C A42U | < 1e-05 s⁻¹ | < 1e-05 s⁻¹ |  | < 1e-05 s⁻¹ | 
6 | C50A G63U | < 1e-05 s⁻¹ | < 1e-05 s⁻¹ | < 1e-05 s⁻¹ |  | < 1e-05 s⁻¹
7 | G13U G40U A48C A53G U57G | < 1e-05 s⁻¹ |  |  |  | 
8 | A33G U65A | < 1e-05 s⁻¹ |  | < 1e-05 s⁻¹ | < 1e-05 s⁻¹ | < 1e-05 s⁻¹
9 | G7U G43U A52G C68A C70U | < 1e-05 s⁻¹ |  |  |  | 
10 | G7U A53U U57A | < 1e-05 s⁻¹ |  |  |  | 
11 | C16G C34G G44U C50U U69C | < 1e-05 s⁻¹ |  |  |  | 
12 | C8U C16G C50G | 0.000158 ± 3.8e-05 s⁻¹ |  |  |  | 8.29e-05 ± 1.9e-05 s⁻¹
13 | C16G A48C C50A C58U A64U | < 1e-05 s⁻¹ |  |  |  | < 1e-05 s⁻¹
14 | A14C C34G G40U | < 1e-05 s⁻¹ |  |  | < 1e-05 s⁻¹ | 
15 | A14U U47A | 0.000141 ± 1.5e-05 s⁻¹ | 0.000575 ± 0.00028 s⁻¹ |  |  | 0.00513 ± 0.00047 s⁻¹
16 | U31A G63A | < 1e-05 s⁻¹ |  |  |  | < 1e-05 s⁻¹
17 | C50G C58A | 5.49e-05 ± 1.6e-05 s⁻¹ | 0.000151 ± 4.4e-05 s⁻¹ | 0.000175 ± 4.4e-05 s⁻¹ | 0.000194 ± 3.7e-05 s⁻¹ | 3.98e-05 ± 1.7e-05 s⁻¹
18 | A6G C8G G40A | < 1e-05 s⁻¹ |  |  |  | < 1e-05 s⁻¹
19 | A12C A53G C68U | 6.52e-05 ± 1.6e-05 s⁻¹ |  |  |  | 
20 | C34U U49A C58A U69A | 0.000146 ± 5e-05 s⁻¹ |  | 0.000567 ± 0.00014 s⁻¹ |  | 4.63e-05 ± 2e-05 s⁻¹
21 | U49G C58G | < 1e-05 s⁻¹ |  |  |  | 
22 | U45G G60U C67U C70A | < 1e-05 s⁻¹ |  | < 1e-05 s⁻¹ |  | < 1e-05 s⁻¹
23 | C11G G44C G60A | < 1e-05 s⁻¹ | < 1e-05 s⁻¹ |  |  | < 1e-05 s⁻¹
24 | U31G A39G A53G | 0.000493 ± 0.00012 s⁻¹ |  | 0.00385 ± 0.0009 s⁻¹ | 0.0115 ± 0.0049 s⁻¹ | 
25 | A36G C58A | < 1e-05 s⁻¹ |  |  | < 1e-05 s⁻¹ | < 1e-05 s⁻¹

Row | Variant | self-cleavage kobs at 40 uM GlcN6P (glucosamine-6-phosphate [1]) | self-cleavage kobs at 160 uM GlcN6P (glucosamine-6-phosphate [2]) | self-cleavage kobs at 640 uM GlcN6P (glucosamine-6-phosphate [3]) | self-cleavage kobs at 2500 uM GlcN6P (glucosamine-6-phosphate [4]) | self-cleavage kobs at 10000 uM GlcN6P (glucosamine-6-phosphate [5])
26 | G41U G44A | < 1e-05 s⁻¹ | < 1e-05 s⁻¹ | < 1e-05 s⁻¹ | < 1e-05 s⁻¹ | < 1e-05 s⁻¹
27 | U54A C61A G66U | < 1e-05 s⁻¹ |  |  |  | 
28 | G7U A36U U54A G62A | < 1e-05 s⁻¹ |  |  |  | 
29 | G7C C16U U31A G41U | < 1e-05 s⁻¹ |  |  | < 1e-05 s⁻¹ | < 1e-05 s⁻¹
30 | C8G U56C G62C | < 1e-05 s⁻¹ |  | < 1e-05 s⁻¹ | < 1e-05 s⁻¹ | < 1e-05 s⁻¹
31 | G9C C11G G37A G38A U54C A64G | < 1e-05 s⁻¹ |  |  |  | 
32 | U55A C71G | 8.5e-05 ± 2.2e-05 s⁻¹ | 0.000248 ± 9.2e-05 s⁻¹ | 0.00136 ± 0.00036 s⁻¹ | 0.000736 ± 0.00023 s⁻¹ | 0.00278 ± 0.0012 s⁻¹
33 | U57C C61U | < 1e-05 s⁻¹ | < 1e-05 s⁻¹ | < 1e-05 s⁻¹ | < 1e-05 s⁻¹ | < 1e-05 s⁻¹
34 | A12U A42G C50U C71G | < 1e-05 s⁻¹ |  |  |  | < 1e-05 s⁻¹
35 | A12U A15C U55A | 0.000587 ± 0.00012 s⁻¹ |  |  |  | 0.012 ± 0.0027 s⁻¹
36 | C11U G38U A52U | < 1e-05 s⁻¹ | < 1e-05 s⁻¹ | < 1e-05 s⁻¹ |  | < 1e-05 s⁻¹
37 | G32C A36G | < 1e-05 s⁻¹ | < 1e-05 s⁻¹ | < 1e-05 s⁻¹ | < 1e-05 s⁻¹ | < 1e-05 s⁻¹
38 | G35C A48G | < 1e-05 s⁻¹ | < 1e-05 s⁻¹ |  | < 1e-05 s⁻¹ | 
39 | U65C C68U C71U | < 1e-05 s⁻¹ |  |  |  | 
40 | G29C G60A | < 1e-05 s⁻¹ | < 1e-05 s⁻¹ |  | < 1e-05 s⁻¹ | < 1e-05 s⁻¹
41 | G9U A14C | < 1e-05 s⁻¹ | < 1e-05 s⁻¹ | < 1e-05 s⁻¹ |  | 
42 | G38A A39G U45G C50G | < 1e-05 s⁻¹ |  |  | < 1e-05 s⁻¹ | 
43 | G7C A33U G41A U56A C71U | < 1e-05 s⁻¹ |  |  |  | 
44 | A12C U55G | 0.000833 ± 0.00013 s⁻¹ | 0.000979 ± 0.00021 s⁻¹ | 0.00404 ± 0.00084 s⁻¹ | 0.00822 ± 0.0022 s⁻¹ | 0.0274 ± 0.0044 s⁻¹
45 | G7C C68A | < 1e-05 s⁻¹ | < 1e-05 s⁻¹ |  | < 1e-05 s⁻¹ | < 1e-05 s⁻¹
46 | C34U G38C C67U | < 1e-05 s⁻¹ |  |  |  | < 1e-05 s⁻¹
47 | G9A C16U A42G C50G | 0.000108 ± 4.9e-05 s⁻¹ |  |  |  | 
48 | A39G A42U U57A | < 1e-05 s⁻¹ | < 1e-05 s⁻¹ |  |  | 
49 | G29C A36G G51C | < 1e-05 s⁻¹ |  |  |  | 
50 | C10A G13C | < 1e-05 s⁻¹ | < 1e-05 s⁻¹ |  | < 1e-05 s⁻¹ | < 1e-05 s⁻¹
